From the DeepSol protein solubility set

Assay: soluble on expression in E. coli; label from the status in PepcDB or PDB records

| Sequence | soluble on expression in E. coli |
| --- | --- |
| MSLEESAVPGWVLELLREAGYKSLLPIQEKAFPIIYRGLNALVVAPTGSGKTEAALAPLLARLRNGRVASGGGVKVVYVTPLRALNRDLEGRVERLAGLFGYTVQVRHGDTVQSSRRRFLERPPDIVITTPESLALLLTVKRAKEVLKQARAVVVDEIHELMESKRGVELSLNLEKLELMAGRRLQRIGLSATVSRHSLYRAASLLGAGRHVSMVLDTSPKEYDVRVVVVGDEGRFWENSVKAIAELVKGEGGSVLIFANTRSTVETLAFALSRELGEEVPAHHGSLSRHVRERVERDFKEGRVKAIVATSSLELGIDVGRVALVVQFLSPRQVTAMVQRAGRSGHRFGERSRAVIVTIDNVFEVLESHVIAFRAMKGDLEDISIPKKPYDALAHFMAGAAIDSEPPTLEGVYKLAVSTAPYEDLKMEEVEEIARVLSDVRVIRLGPGGKLGRSSRTYSYFYRVSMIPDEKTFKVHDVVSGRDVGEVGERFIQLRLMKASDPREGHHHHHH | not soluble |
| MSLEFANFDSDLQYFLFQHIAVLLTANTKYRRALLLYGGAKNGKSVFINLVRSFFYSEDIVSKALNELQGRFDKESLVGKKLMASDEIGESRIQEKIVNDLKKLVSVEPVHVDRKGKTQVETTLDLKLAFGTNARLNFPSAHAKALERRIAVIPCEYYVEKADPDLIEKLQDEKKEIFLYLMYVYKQIVKNDIEYLQNDRVTEISHDWLNFGYEFVSSKSASIANQKACINLLRKLIEIKPGSRIKVSELNKVINEEIKVSSQVIKQLIQANFDTQTKLYNGYDYWIDLGWKEADKKEIHDISKKDNIISLDKNENITDDETLDEENLDFDWEDFDDEGHHHHHH | not soluble |
| MSLEHFFTGTVDRIIFENAANFFKILLLAIEDTDSDIDDFEIIITGTMADIIEGDDYTFWGELTQHPKYGQQLKLSRYQKIKPSSSGLVNYFSSDHFKGIGKKTAEKIIALYGHNTIDHILEDPSKLETISGLSKANRQAFVAKLKLNYGTEQLIAGLVELGLSNRFALQAFEKYKEEALDLVKENPYQLVEDLQGFGFKMADALAENLGIESDSPKRFRAALLHCLLEESINRGDTYVQARQLLDFAITLLEDARQVECDPAAVAEQLSELIIEGKIKNSDTKLFDASLYFAEEGIANNISRLLDTPLSQSFSHDTIQTTIQAVQKDFAITYDQVQQEAITKALTSKVFLLTGGPGTGKTTVIRGILQAYANLHQIDLDKKDLPILLAAPTGRAARRMNELTGLPSATIHRHLGLNGDNDYQAMEDYLDCDLLIVDEFSMVDTWLANQLLGAINSTTQVIIVGDSDQLPSVGPGQVLSDLLKVNSLPQIALQKIFRQSQESTIVNLADQMRRGILAADFRDKKADRSYFEAQAAFIPDMIQKIVLSAIKSGIPAEEIQILAPMYKGQAGINHLNQLMQELLNPLQGQTEFLFNDTHFRKGDKVLHLVNDAQLNVFNGDIGYITDLIPAKYTESKQDELILDFDGSEVTYPRNEWLKLTLAYAMSIHKSQGSEFQVVILPITRQSGRLLQRNVIYTAITRSKSKLILLGEYTAFEYAIKHEGDKRQTYLIERFQEQSDLASSEGHHHHHH | soluble |
| MSLEIKFLSLCILAGVLFVSQVNASANNGKDDVKYAALTQKDLDALPVEKRASVLDELGFIHEYGLSVPMNRERALQYYKQACELGGNYGCYNVKYAYQYGDGVAKDSAQANKYAKKMNLDNLLIEQEYIDKFSQEIYMAKALADTDKSQRAAFISILIHALNNRPESDALFFSRIGFNQEKTFRLATLWSQDGDPQMDYQMGRLTLNDFSGRYADEPYQARPASLKWFRAAAEKGVVEAQSLLGGIYSGGEGDEWGIKPDIQEAQKWYGQAAKQGDSDAQIALGKIYYSGATGRTDYAKALALFTQVENDGTNSRSTMPLSWMYYNGLGTAPDCDKAWSYYKKASRYVGKKVEEGHHHHHH | not soluble |
| MSLEISKQTSDLLLSLEKKKGTLPKFSVLRSIPRNRIIYGAPGTGKSNYLEREVGKIFGDNPYVFTRVTFFPGYTYGQFIGAYKPVPIYKKLSGEEEIFSSNFRDKMENFEPMIDYQFVPGPFIDVLIKALKNRYTNFILIIEEINRANAASVFGDIFQLLDRNKNGESDYPVTFGPDIMNYLARNGIKDEMIKLPSNFFIWATMNNADQGVLPLDTAFKRRWSFEYLELEKYRKAVDSWKLSLRYKGHNKVIMWNDFRDIINKRLKGKVPEDKLLGPFFLKESELWNQNVFKNKLLYYLKEDVFKHNPTIDFLNASTFSELIEKYDGSDNIFTFDIDDSSFVSDEGGSHHHHHH | soluble |
| MSLEKQIESYYQEIAQLIIDMIPEEWAEVRFYAQEDHDGWKIFFFHYLSASSDEWTKDIDIRDVIKVPQDEFMEKYNELSFCISDFRKDYAEAFGEPWMSFQMTFYASGKFNIDFYYDKNPFDTFLTRLAWQYEHFGTIPEDSFYKETLNEYLEEKAQGKRYPFLEPLKEEEGHHHHHH | soluble |
| MSLEKQMNCNLKELKEFIDNEMLLILGQMDKPSLIFDHLYLGSEWNASNLEELQGSGVDYILNVTREIDNFFPGLFAYHNIRVYDEETTDLLAHWNEAYHFINKAKRNHSKCLVHCKMGVSRSASTVIAYAMKEFGWPLEKAYNYVKQKRSITRPNAGFMRQLSEYEGILDASKQRHNKLWRQQTDSEGHHHHHH | not soluble |
| MSLEKTTRMNYLFDFYQSLLTSKQKSYMSLYYLDDFSLGEIAEEYEVSRQAVYDNIKRTEAMLEQYEEKLLLLKKFQERKEMFNKLKELASGSKEEEEITALIEALEKLD | soluble |
| MSLELAQQWTQQRQALGERDDAMAALKTLDSSYAATTVFPPKGEVSLHERAGLYQGNEVNPPLAAAYRRELETQLLPRVARMLEAQIRGNMQNRERLLNSLRAYLMLNLRERRENGWLKDWVATDWSQRYAGNGTVQNGLNTHFARLLEQPFSYPLNETLVAQARQVLRSESLANVVYRVLREQARSLPEYRFGQHLGPQAGLFVGTDYVIPGFYTQQGYQQYFVVQGASLVNDILRDNWVLGEGSGISDMDLRRLMVELEQLYFRDYANFWSEAVGRLGLLPFNDAGEGADQVSGLLAANSPILQLLLEVRENTRFPVLAESAEALAEASDKAAEKGGKLGKAAAAAAGKARDALAKNLPDTAKKSLQRRFEPLHRLLDDNNGPAADLTPLLQALNELQLQLAGLARASQPEQEGHHHHHH | soluble |
| MSLELKNKKIVVTGGTSGIGLAFAKKLAAIDNQIIIGSRSKEKITEVVKDNKNISGYQVDVSDQESVERFYKQTISEFKNIDIVINSAGIMRHYNLLDEKTTSQKLQAEIQTNLIGTINIDKIFLPILRKQAESMIVNISSGLANLSSAAHPIYSATKAGVHMFTDALREQLHFAGEDHIHIVELVPPLVAETNLEKDVNSQNTPLNIKLSDLINEAIQGIEENSIRINAGMAKEMRKMGQTDPDKNEREMATMMIPMYFPDGLKEGHHHHHH | not soluble |
| MSLELKPKRFLVLDDQLVLRKLISRQASFFTRFAVEIDEFSDPAEALRSIAEGGYHLVITDIGMPGMNGIDFIKNVARLGYQSALLIISGYDGKTLQTIADMSVNLGLSCTRFLSKPYSAEAFVAALNGIFSEMERSEAEGHHHHHH | not soluble |
| MSLELLIPQLEFLNEEGAQAEVWALSRIFLDTLVKETGQKVKAIFPDAGAAALLKYQWTDAEFKCASLSDRKPVDVEDEVVVMIIPDHQMVESVERIASQLSDDPIRPLVMWNPRLVSGDVGVGFNVRNLRRNFLSTFTTVYSMRPLPTGAVFRQYPGKWKVFYDDPKRPNRYLLARELVSRPDATDIEIIFGGGDEQSDEAPSLMNNVMGVFSSVSRFMRVISKEGHHHHHH | not soluble |
| MSLENKRILITGGAGFIGSNMVEHLLPKNEVTVIDNLSITDDRYIKKFYDNPNFKFIKKDILNGIDGYHYDIVVHLAADSDVRNGSSNPALDMKVNVEGTISVLEMMRKSDIKDILFASSSTVYGEAKVIPTPENYGPLLPISSYGASKLAAEAFISAYASYYGFNALLFRFANVVGKNSTHGVIFDFINKLKNNKKELEVLGDGTQAKSYIHVEDLIGSMIYVYEHVKGVEPFNLGNDDVTSVDKIAKFVLEAMGLKDTAIVHRGGYNGRGWPGDVKYAMMDIAKLKKTGWKNKYSSDEAVKKSINEVMNQILEGHHHHHH | soluble |
| MSLEQKILAQGALEAARRRQSEQEKALLLSQLKQLQSQMEPHFLFNTLANINALIAVEPYKAQLMLEKFTELLRGTMRLRRTNTGDLREEMQLIDAYLGIQKIRLGERLEYTLPELSELGTLGMPPMLIQPLVENAVSHGIEPKAEGGTIRVRIEVADDWFELSVEDNGMGLSDTPKGNGIALQNVRDRLSGLFGHEGLLTVAQNCSGGVTATLRIRLHHLQGLQRSFYDYSQARSPQSEGHHHHHH | soluble |
| MSLERQTLKQKLSTLIQPLQTAKRGAPLTNRTLSATTCQQIESLVTAIEALNPNLSPLLYSPQLLDGNWWLNYSTAREIRSLDKLPLGLKVGRIYQIINVPNQSFLNQAFVYHPLGLAKGYVKVTAKFEIAKPAGTVLPDKRINVEFLERMISIQKLMGVPTPKLDPAKVVPARSPEGRIPFLEITYLDDDLRIGRGGEGSLFVLSKVSEVTPLEHHHHHH | not soluble |
| MSLESIKVVIVGGGQAGIAMGYYLVKEKVPFMILDANEQVGDSWRNRYDSLVLFTPRTYSQLPGFPMDGAPNGFPTKDEMASYLQQYANHFNLPMRHHTKVDRVTRQQNGRFHLKTTNGWIEAEKVVIATGAFQKPYLPPVLDSANNEMSQVHSSAYRNPAQIPGKSVLVVGGGNSGAQIAVELAKERNVTMAISHPFRFLPLKLLNKSMFSWLEWGGLLYAGIDTTRGRWFKKQKDPIFGKELKSLIKKGQIHLKPRVMNVQGKEVEFADHSRLSFDRIIWSTGFSPSYEWIDIDGVIATNGWPIHNRGITNIRGLYFLGLPWQYQRGSALVCGVGRDAEYLVPFIKHGDKEGHHHHHH | soluble |
| MSLETKTPNDAKNQVQTHERMKTSSEHVTPLDFNYPIHIVQAPQNHHVVGILTPRIQVSDNLKPYIDKFQDALINQIQTIFEKRGYQVLRFQDEKALNAQDKRKIFSVLDLKGWVGILEDLKMNLKDPNNPNLDTLVDQSSGSVWFNFYEPESNRVVHDFAVEVGTFQAMTYTYKHNNSGGLNSSNSIIHEYLEKNKEDAIHKILNRMYAVVMKKAVTELTKENIDKYREAIDRMKGFKSSMPQKKEGHHHHHH | soluble |
| MSLETQDHTLYVLLGPTGVGKTDLSLDIAERLGSPIISADSRQIFRELPIGTAAPTPEQRARVPHLFVGTHSVRDYYSAGMYEVEVLEALKELFRKYRGVLLTGGSMMYIDAVCRGIDDIPDPFPEVREELYARYAAEGLDGILAQLRLLDPDYYAKVDRRNYKRVIHGLEICLSTGRPFSSFHRHEAKERPFRIVKIGLYREREELCKRIDARVLEMMEQGLEEEARAVYPLRHLNALNTVGYKEMFEYFDGSIDRAEAVRRIQRNSRVYARKQMTWFRRDSTIRWFHPEADKGTVLTLVTEGHHHHHH | soluble |
| MSLEVLATFLYKFNGWSFLGRVLQNLSKNFDFTDREKVDTIVDIMSMLTKVVGEVSVEDSKHALTSMSAYTDDSDVLEVIFRLFEQSLHSRNIRMIESILNLLTQLVPIFSYRIWPAFSKSALLFDGTREGFATVIFGSIEMVNGDFRLTIALAKLTDALVYDCLTLDNAVPSKVKEAVLKKLVSHLIAVMESYAQEGHHHHHH | soluble |
